Results: article PMC3405102, “Solution Structure of the LIM-Homeodomain Transcription Factor Complex Lhx3/Ldb1 and the Effects of a Pituitary Mutation on Key Lhx3 Interactions” (PLoS ONE, 2012)

Biological target: T1, Lhx3 LIM1+2 as it stands in the tethered complex Ldb1-Lhx3 (mouse, UniProt P50481-1 28-153)
T1 construct: Lhx3 (LIM homeobox protein 3), mouse, both LIM domains, residues 28-153; source: part of the tethered Ldb1-Lhx3 chain
T1 sequence (looked up): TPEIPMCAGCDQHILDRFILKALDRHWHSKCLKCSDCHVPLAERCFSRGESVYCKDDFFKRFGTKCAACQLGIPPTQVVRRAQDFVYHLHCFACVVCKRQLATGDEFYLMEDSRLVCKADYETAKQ
Experiment: SAXS; Ldb1-Lhx3 tethered complex at 4.5 mg mL^-1 in 20 mM Na2HPO4, 40 mM NaCl, 1 mM DTT, pH 6.8, 283 K; mass from I(0), Guinier analysis, DAMMIF and BUNCH modelling
Conditions: both partners purified

- binding result: binds
B1: Ldb1LID as it stands in the tethered complex Ldb1-Lhx3 (domain or fragment, mouse, UniProt P70662-3 300-339, looked up)
chain: DVMVVGEPTLMGGEFGDEDERLITRLENTQFDAANGIDDE
notes: numbers count on: isoform P70662-3; source: part of the tethered Ldb1-Lhx3 chain
